Assay results from patent US20250145723A1 (MINGHUI PHARMACEUTICAL HANGZHOU, published 2025).
Numbering of substitutions follows the chain as printed. Values belong to the binder of their own block, whether it stands above or below them.

Assays:
[1] = molecular target: T1, recombinant human IGF-1R-his (human, UniProt P08069 31-932); assay: competition ELISA, coated hIGF-1R-his, competitor IGF-1-Fc 1.25 µg/mL
T1 construct: Recombinant his-tagged protein; also called hIGF-1R-his; hIGF1R-his; not shown: his tag
Description: Recombinant human IGF-1R-his antigens (5 μg/mL) were added to a 96-well plate for coating overnight at 4° C. The plate was washed with PBS, and then was blocked with 1% casein at room temperature for 1 h. The VHH samples were diluted 2-fold serially with 0.1% BSA/PBS, with a starting concentration of 20 μg/mL. […] The plate was washed three times with 0.1% PBST, horseradish peroxidase-labeled anti-human Fc tag antibodies (anti-human IgG-HRP, Abcam ab6759, 1:5,000, containing 1% casein) were added and incubated at room temperature for 30 min, and the plate was washed three times with 0.1% PBST. A TMB substrate solution (Thermo, 34028) was added for color development, the OD₄₅₀ was read using a microplate reader, and a curve was fit and the EC₅₀ value was calculated using Graphpad Prism software.

[2] = molecular target: T2, recombinant mouse IGF-1R-his (mouse, UniProt Q60751 31-933); assay: ELISA, coated antigen 5 µg/mL
T2 construct: not shown: his tag
Description: (§1) Recombinant human, monkey and mouse IGF-1R-his antigens and human insulin receptor proteins (5 μg/mL) were added to a 96-well plate for coating overnight at 4° C. The plate was washed with PBS, and then was blocked with 1% casein at room temperature for 1 h. The nanobody-Fc fusion proteins were diluted to 2 μg/mL with 0.1% BSA/PBS, added to the antigen-coated 96-well plate, and incubated at room temperature for 1 hour. The plate was washed three times with 0.1% PBST, horseradish peroxidase-labeled anti-human Fc tag antibodies (anti-human IgG-HRP, Abcam ab6759, 1:5,000, containing 1% casein) were added and incubated at room temperature for 30 min, and the plate was washed three times with 0.1% PBST. A TMB substrate solution (Thermo, 34028) was added for color development, and the OD₄₅₀ was read using a microplate reader.

[3] = molecular target: T3, human insulin receptor protein (human, UniProt P06213-2 28-944, limits assumed); assay: ELISA, coated antigen 5 µg/mL
T3 construct: also called human insulin receptor proteins
Description: as §1

[4] = molecular target: T1, recombinant human IGF-1R-his; assay: competition ELISA, coated hIGF-1R-his, competitor biotinylated IGF-1
Description: Recombinant human IGF1R-his antigen (5 μg/mL) was added to a 96-well plate for coating overnight at 4° C. The plate was washed 4 times with 1×TBST, and then was blocked with 2% BSA at room temperature for 1.5 h. The plate was washed four times with 1×TBST, and 50 μL of nanobody-Fc fusion proteins of different concentrations (with a starting concentration of 10 μg/mL, 2-fold serially diluted) and 50 μL of biotinylated IGF-1 ([…]) were added to the antigen-coated 96-well plate and incubated at 37° C. for 1 h. The plate was washed 4 times with 1×TBST, horseradish peroxidase-labeled Streptavidin (Thermo, 21126) was added and incubated at 37° C. for 1 h, and the plate was washed 4 times with 1×TBST. TMB substrate solution was added at 200 μL per well for color development in the dark for 20 min, 50 μL of 1 M H₂SO₄ was added to terminate the reaction, and the OD₄₅₀ was read using a microplate reader. A curve was fit and the IC₅₀ value was calculated using Graphpad Prism software.

[5] = molecular target: T1, recombinant human IGF-1R-his; assay: ELISA, coated hIGF-1R-his
Description: Recombinant human IGF-1R-his antigens (2 μg/mL) were added to a 96-well plate for coating overnight at 4° C. The plate was washed three times with PBST, and then was blocked with PBST containing 5% skimmed milk powder at room temperature for 2 h. The blocking solution was discarded, the plate was washed three times with PBST, and then 30 μL of nanobody-Fc fusion proteins of different concentrations were added and incubated at room temperature for 1 h. The plate was washed 3 times with PBST, horseradish peroxidase-labeled anti-human Fc antibodies (abcam, ab97225) were added at 30 μL/well and incubated at room temperature for 1 h, and the plate was washed 3 times with PBST. TMB substrate solution was added at 30 μL/well for color development in the dark for 5-30 min, 30 μL of 2 M H₂SO₄ was added to terminate the reaction, and the OD₄₅₀ was read using a microplate reader. A curve was fit and the EC₅₀ value was calculated using Graphpad Prism software.

[6] = molecular target: T1, recombinant human IGF-1R-his; assay: competition ELISA, coated hIGF-1R-his, competitor IGF-2 (N-Avi & N-Fc)
Description: (§2) Recombinant human IGF-1R-his antigens (5 μg/mL) were added to a 96-well plate for coating overnight at 4° C. The plate was washed 4 times with 1×TBST, and then was blocked with 2% BSA at 37° C. for 1.5 h. The plate was washed four times with 1×TBST. A volume of 50 μL of biotinylated IGF-1-Fc (2.5 μg/mL) or IGF-2 (N-Avi & N-Fc 4 μg/mL), and 50 μL of nanobody-Fc fusion proteins of different concentrations (with a starting concentration of 10 μg/mL, 2-fold serially diluted) were added to the 96-well plate and incubated at 37° C. for 1 h. The plate was washed 4 times with 1×TBST, horseradish peroxidase-labeled Streptavidin (Thermo, 21126) was added and incubated at 37° C. for 1 h, and the plate was washed 4 times with 1×TBST. TMB substrate solution was added at 200 μL/well for color development in the dark for 20 min, 50 μL of 1 M H₂SO₄ was added to terminate the reaction, and the OD₄₅₀ was read using a microplate reader. A curve was fit and the IC₅₀ value was calculated using Graphpad Prism software.

[7] = molecular target: T1, recombinant human IGF-1R-his; assay: competition ELISA, coated hIGF-1R-his, competitor biotinylated IGF-1-Fc
Description: as §2

T1 sequence (P08069 31-932 limits assumed): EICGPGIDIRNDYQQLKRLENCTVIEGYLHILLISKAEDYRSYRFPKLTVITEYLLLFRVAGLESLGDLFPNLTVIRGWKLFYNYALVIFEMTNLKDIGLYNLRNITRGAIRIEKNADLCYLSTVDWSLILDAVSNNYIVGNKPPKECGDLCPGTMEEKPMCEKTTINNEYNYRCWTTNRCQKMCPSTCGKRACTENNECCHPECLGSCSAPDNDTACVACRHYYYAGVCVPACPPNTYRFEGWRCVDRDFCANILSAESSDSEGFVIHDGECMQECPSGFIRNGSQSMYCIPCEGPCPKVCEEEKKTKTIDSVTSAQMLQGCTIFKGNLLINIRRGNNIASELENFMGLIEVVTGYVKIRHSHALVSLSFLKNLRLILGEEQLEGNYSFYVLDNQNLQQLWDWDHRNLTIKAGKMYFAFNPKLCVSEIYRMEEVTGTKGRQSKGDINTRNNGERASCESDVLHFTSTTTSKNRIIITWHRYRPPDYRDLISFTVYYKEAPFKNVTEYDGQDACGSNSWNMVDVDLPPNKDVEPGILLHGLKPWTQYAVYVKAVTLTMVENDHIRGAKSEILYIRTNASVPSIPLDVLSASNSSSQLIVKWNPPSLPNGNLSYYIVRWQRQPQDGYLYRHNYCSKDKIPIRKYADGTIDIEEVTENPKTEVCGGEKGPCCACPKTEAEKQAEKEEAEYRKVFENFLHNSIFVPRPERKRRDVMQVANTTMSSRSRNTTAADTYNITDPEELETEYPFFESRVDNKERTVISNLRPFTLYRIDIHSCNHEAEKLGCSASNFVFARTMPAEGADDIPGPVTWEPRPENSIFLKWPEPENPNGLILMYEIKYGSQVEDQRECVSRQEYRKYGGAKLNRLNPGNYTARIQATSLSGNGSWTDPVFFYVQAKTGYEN
T3 sequence (P06213 other isoform, or with tags, fused parts or gaps limits assumed): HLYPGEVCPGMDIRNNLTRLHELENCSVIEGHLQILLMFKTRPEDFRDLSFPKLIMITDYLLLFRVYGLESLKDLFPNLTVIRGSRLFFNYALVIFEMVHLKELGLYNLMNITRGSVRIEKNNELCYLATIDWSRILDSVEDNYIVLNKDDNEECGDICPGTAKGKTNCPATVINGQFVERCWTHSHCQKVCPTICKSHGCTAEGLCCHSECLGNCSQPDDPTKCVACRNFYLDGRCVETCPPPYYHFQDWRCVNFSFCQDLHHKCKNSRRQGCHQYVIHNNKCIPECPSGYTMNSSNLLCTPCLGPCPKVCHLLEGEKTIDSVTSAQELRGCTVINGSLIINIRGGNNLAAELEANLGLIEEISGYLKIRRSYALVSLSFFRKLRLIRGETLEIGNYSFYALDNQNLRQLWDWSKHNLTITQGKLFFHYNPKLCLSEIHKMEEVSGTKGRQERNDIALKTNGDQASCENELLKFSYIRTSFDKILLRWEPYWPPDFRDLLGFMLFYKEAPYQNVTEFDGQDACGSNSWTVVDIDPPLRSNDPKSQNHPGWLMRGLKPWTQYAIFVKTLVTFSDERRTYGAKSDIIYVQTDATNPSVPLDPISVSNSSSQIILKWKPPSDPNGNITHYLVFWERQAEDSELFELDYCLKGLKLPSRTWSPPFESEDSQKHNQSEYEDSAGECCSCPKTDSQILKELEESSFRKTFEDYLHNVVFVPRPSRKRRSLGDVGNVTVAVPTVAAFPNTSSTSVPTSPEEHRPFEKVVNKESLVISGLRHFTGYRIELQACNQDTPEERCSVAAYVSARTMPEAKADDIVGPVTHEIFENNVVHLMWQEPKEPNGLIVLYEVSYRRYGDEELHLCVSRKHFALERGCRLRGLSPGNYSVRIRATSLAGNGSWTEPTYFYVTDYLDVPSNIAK
T2 sequence (Q60751 31-933 limits assumed): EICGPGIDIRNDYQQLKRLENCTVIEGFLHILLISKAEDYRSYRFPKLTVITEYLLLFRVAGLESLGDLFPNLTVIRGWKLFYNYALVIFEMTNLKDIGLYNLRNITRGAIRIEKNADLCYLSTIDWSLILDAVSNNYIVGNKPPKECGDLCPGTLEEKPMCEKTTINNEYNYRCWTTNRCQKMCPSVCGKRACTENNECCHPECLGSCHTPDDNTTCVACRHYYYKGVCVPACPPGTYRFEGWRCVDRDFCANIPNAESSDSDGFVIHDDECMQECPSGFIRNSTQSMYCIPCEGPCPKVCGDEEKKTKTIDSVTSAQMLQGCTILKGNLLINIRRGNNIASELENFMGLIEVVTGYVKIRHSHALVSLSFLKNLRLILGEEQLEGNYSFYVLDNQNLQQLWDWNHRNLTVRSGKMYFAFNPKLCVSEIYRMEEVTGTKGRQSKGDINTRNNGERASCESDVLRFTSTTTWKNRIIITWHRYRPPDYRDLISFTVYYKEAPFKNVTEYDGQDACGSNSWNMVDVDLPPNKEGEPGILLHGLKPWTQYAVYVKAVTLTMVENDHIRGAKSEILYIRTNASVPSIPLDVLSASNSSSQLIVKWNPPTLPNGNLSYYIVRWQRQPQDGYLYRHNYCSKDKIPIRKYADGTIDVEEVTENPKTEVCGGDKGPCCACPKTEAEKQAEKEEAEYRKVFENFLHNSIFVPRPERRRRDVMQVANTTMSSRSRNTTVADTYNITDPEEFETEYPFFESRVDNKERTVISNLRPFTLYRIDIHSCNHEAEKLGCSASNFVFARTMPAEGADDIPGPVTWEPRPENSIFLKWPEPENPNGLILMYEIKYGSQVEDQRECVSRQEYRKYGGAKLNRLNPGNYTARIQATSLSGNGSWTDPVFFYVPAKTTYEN

binding result [2]: no binding (tested: 2 µg/mL)
binding result [3]: no binding (tested: 2 µg/mL)
IC50 [4]: 0.435 µg/mL
B2: 5115-Fc fusion protein (Fc fusion)
VHH: EVQLVESGGGLVQAGGSLRLSCAVSGRTFSSFVMGWFRQAPGKEREFVAAISGSGSRANYADSVKGRFTVSRDNANNTVYLQMNSLKPDDTALYYCAANPRRATPDYTQYAYWGQGTQVTVSS
notes: C-terminus of the VHH linked to the N-terminus of human Fc; not shown: The human Fc segment; Any hinge or linker is also unstated

binding result [2]: no binding (tested: 2 µg/mL)
binding result [3]: no binding (tested: 2 µg/mL)
EC50 [5]: 0.0327 µg/mL
IC50 [6]: 0.177 µg/mL
IC50 [7]: 0.236 µg/mL
B4: 5115-H0-Fc (Fc fusion)
chain: EVQLVESGGGLVQPGGSLRLSCAASGRTFSSFVMSWFRQAPGKEREFVSAISGSGSRAYYADSVKGRFTISRDNSKNTLYLQMNSLRAEDTAVYYCAANPRRATPDYTQYAYWGQGTQVTVSS
notes: Humanized VHH-Fc; Fc not specified; not shown: Fc

Further lines, the binder ahead of its results:

B1: nanobody 5115 (VHH) (VHH)
VHH: B2 VHH
IC50 [1]: 0.24 µg/mL

B3: nanobody 5666 (VHH) (VHH)
VHH: B2 VHH with F32Y, F47L, A58S, N84S, K87R, A92G, P105T
IC50 [1]: 0.7 µg/mL
